Measurements from PMC8554075 (Immunity, 2021).
Changes are numbered by the printed parent chain.

B1: AB-4689, expressed as human IgG1 (antibody, V domains shown)
VH: QVQLVQSGAEVKKPGASVKVSCKASGYTFSSYGISWVRQAPGQGLEWMGWISAYNGNTYYAQKLQGRVTMTTDTSTSTAYMELRSLRSDDTAVYYCAREFGRLIVHFDYWGQGTLVTVSS
VL: EIVLTQSPDFQSVTPKEKVTITCRASQSIGSSLSWYQQKPDQSPKLLIKCASQSISGVPSRFSGSGSGTDFTLTINSLEAEDAAAYYCHQSSSLPYTFGQGTKLEIK
B2: AB-3467, expressed as human IgG1 (antibody, V domains shown)
VH: QVQLQESGPGLVKPSETLSLTCTVSGGSISSYHWNWIRQPPGKGLEWIGYIYYSGNTNYNPSLKSRVSISTDTSKNQFSLKLSSVTAADTAVYYCVREMRRGYSGYDYWDLYAFDIWGQGTMVTVSS
VL: DIQLTQSPSFLSASVGDRVTITCRASQGISSYLAWYQQKPGKAPNLLIYAASTLQSGVPSRFSGSGSGTEFTLTISSLQPEDFATYYCQQLNSYPHTFGQGTKLEIK
B3: AB-3623, expressed as human IgG1 (antibody, V domains shown)
VH: B2 VH with T23A, H33Y, K43T, N56R, S68T, T71V, V96A, Y108D
VL: B2 VL with A13T, V15I
B4: AB-4873, expressed as human IgG1 (antibody, V domains shown)
VH: QVQLVQSGAEVKKPGASVKVSCKASGYTFTSYYMHWVRQAPGQGLEWMGIINPSAGTTNYAQKFQGRVTMTRDTSTSTVYMELSSLRPEDTAVYYCARENYYGWGSYPFDYWGQGTLVTVSS
VL: B2 VL with I2V, N45K, S65T, H96Y
B5: AB-2445, expressed as human IgG1 (antibody, V domains shown)
VH: QVQLVESGGGVVQPGRSLRLSCAASGFTFSSYGMHWVRQAPGKGLEWVAVIWYDGSNKYYADSVKGRFTISRDNSKNTLYLQMNSLRAEDTAVYYCARDDYYGSGSYDYYGMDVWGQGTTVTVSS
VL: DIQMTQSPSSLSASVGDRITITCRASQGIRNDLDWYQQKPGKAPKRLIYAASSLQSGVPSRFSGSGSGTEFTLTISSLQPEDFATYYCLQHNSYPPYTFGQGTKLEIK

These binders were tested against T1, SARS-CoV-2 receptor-binding domain (SARS-CoV-2, UniProt P0DTC2) (assay: BLI).

Row | Binder | Kd
1 | B1 | 0.24 nM
2 | B2 | 4.1 nM
3 | B3 | 2.3 nM
4 | B4 | 4.1 nM

The binders below were run against T1, SARS-CoV-2 receptor-binding domain (assay: cell-based or functional assay).

Row | Binder | neutralization of live CoV2 virus, Vero E6 cells (blocks RBD-ACE2)
5 | B5 | 0.37 µg/mL
6 | B2 | 0.179 µg/mL
